From patent publication US20140087995A1 (published 2014)
Numbered stars: 1 amine (or outer) side, 2 acyl side, 3 side chain; on linkers, the order of the positions; unused ones are H or OH. Bridge positions count the residues as written; N and C are the ends. Square brackets hold non-standard residues; d marks the D form. Side chains are listed from the residue outwards. Ends that are not written are not given here. * marks the point of attachment. C20 diacid = O=C(O)CCCCCCCCCCCCCCCCCCC(=O)*; γGlu = O=C(O)[C@H](CCC(=O)[*:2])N[*:1]

T1: human amylin 3(a) receptor (human calcitonin receptor co-expressed with RAMP-3) (human, UniProt P30988 25-474; O60896 24-148, limits assumed)
T1 sequence (looked up) 1: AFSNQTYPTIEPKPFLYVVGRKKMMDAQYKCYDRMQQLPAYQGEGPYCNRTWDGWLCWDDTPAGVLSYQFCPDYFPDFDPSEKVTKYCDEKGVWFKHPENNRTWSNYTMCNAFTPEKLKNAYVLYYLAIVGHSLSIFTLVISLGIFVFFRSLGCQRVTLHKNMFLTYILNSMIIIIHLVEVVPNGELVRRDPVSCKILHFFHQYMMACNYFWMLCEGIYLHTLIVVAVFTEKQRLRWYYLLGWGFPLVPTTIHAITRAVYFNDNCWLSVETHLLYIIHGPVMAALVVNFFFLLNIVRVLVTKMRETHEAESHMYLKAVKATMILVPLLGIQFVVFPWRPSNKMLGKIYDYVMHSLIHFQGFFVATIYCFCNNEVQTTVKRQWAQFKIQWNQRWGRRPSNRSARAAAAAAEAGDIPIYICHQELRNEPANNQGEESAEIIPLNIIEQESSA
T1 sequence (looked up) 2: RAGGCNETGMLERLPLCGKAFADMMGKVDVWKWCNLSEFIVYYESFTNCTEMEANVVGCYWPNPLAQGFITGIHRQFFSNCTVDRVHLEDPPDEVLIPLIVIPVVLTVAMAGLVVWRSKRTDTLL

T2: human calcitonin receptor (human, UniProt P30988 25-474)
T2 sequence (looked up): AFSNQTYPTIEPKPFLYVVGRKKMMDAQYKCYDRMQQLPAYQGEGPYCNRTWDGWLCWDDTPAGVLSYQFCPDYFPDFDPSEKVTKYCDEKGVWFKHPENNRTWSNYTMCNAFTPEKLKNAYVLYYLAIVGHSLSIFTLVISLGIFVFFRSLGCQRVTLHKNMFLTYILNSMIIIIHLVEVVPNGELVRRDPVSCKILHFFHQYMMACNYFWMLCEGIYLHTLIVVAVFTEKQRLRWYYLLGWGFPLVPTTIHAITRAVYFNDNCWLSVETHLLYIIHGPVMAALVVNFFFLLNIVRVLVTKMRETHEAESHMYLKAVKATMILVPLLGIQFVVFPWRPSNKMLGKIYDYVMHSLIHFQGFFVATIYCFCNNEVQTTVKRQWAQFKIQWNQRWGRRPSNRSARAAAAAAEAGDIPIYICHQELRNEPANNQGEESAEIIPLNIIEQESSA

T3: human amylin 3(a) receptor (human calcitonin receptor co-expressed with RAMP-3) (human, UniProt P30988 25-474; O60896 24-148, limits assumed)
T3 sequence (looked up) 1: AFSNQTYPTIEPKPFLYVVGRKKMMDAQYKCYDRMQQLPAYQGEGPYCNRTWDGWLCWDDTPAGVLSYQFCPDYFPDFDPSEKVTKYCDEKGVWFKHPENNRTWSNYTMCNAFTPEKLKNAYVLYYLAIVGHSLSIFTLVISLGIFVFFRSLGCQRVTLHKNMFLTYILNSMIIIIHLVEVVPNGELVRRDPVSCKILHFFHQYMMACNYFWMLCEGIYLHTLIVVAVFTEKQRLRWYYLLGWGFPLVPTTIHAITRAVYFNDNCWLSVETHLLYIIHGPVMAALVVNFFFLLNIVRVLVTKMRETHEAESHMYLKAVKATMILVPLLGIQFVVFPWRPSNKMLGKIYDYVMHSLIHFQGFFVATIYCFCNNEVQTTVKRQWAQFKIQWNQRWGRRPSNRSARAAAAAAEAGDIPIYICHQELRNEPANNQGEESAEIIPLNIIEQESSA
T3 sequence (looked up) 2: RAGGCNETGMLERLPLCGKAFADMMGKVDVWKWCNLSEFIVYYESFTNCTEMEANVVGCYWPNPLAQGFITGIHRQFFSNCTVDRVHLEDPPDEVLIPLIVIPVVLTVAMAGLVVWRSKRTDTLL

T4: human calcitonin receptor (human, UniProt P30988 25-474)
T4 sequence (looked up): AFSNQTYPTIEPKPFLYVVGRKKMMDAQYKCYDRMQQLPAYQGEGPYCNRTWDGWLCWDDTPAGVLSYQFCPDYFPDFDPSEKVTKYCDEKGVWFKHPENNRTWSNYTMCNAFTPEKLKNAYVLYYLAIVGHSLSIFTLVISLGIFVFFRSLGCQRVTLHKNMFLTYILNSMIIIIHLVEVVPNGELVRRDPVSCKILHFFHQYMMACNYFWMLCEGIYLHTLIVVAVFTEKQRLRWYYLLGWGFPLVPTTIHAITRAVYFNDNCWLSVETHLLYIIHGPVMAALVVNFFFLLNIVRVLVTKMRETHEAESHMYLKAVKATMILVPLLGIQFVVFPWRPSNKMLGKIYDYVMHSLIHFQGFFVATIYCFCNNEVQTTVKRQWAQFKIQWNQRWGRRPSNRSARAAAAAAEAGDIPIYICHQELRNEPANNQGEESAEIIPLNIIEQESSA


Tests used:
[1] = target: T1, human amylin 3(a) receptor (human …); test: cell-based or functional assay
[2] = target: T2, human calcitonin receptor; test: cell-based or functional assay
[3] = target: T3, human amylin 3(a) receptor (human …); test: cell-based or functional assay; remark: listed apart in the source
[4] = target: T4, human calcitonin receptor; test: cell-based or functional assay; remark: listed apart in the source
[5] = target: T3, human amylin 3(a) receptor (human …); test: SPA competition binding (Assay V): displacement of 125I-rat amylin from membranes of BHK cells with human calcitonin receptor + RAMP-3
Description: The binding assay was performed using scintillation proximity assay (SPA) beads (RPNQ0001) from PerkinElmer and cell membranes from the Amylin 3(a)/CRE-luc cells (as described in Assay (II)) were used. Membranes were prepared in the following way; the cells were rinsed with PBS and incubated with Versene for approximately 5 min before harvesting. The cells were flushed with PBS and the cell-suspension was centrifuged for 5 min at 1000 rpm. Cells were homogenized (ultrathurrax) in a buffer containing 20 mM Na-HEPES and 10 mM EDTA (pH 7.4) and centrifuged at 20.000 rpm for 15 min. The resulting pellet was resuspended, homogenized and centrifuged (20.000 rpm, 15 min) in a buffer containing 20 mM Na-HEPES and 0.1 mM EDTA (pH 7.4, buffer 2). The resulting pellet was resuspended in buffer 2 and protein concentration was measured (BCA protein Assay, Pierce). The homogenate was kept cold during the whole procedure. The membranes were kept at −80° C. until use. The assay was performed in a 384 well Optiplate (PerkinElmer) in a total volume of 40 ul. Membranes were mixed with SPA beads. Final concentration of membranes 35 ng/μL final and SPA beads was 0.05 mg/well. Test-compounds were dissolved in DMSO and further diluted in assay buffer (50 mM Hepes, pH 7.4, 1 mM CaCl2, 5 mM MgCl₂, 0.1% OA and 0.02% Tween20). […] The final mixture was incubated with shaking at 400 rpm for 120 min at 25° C. prior to centrifugation (1500 rpm, 10 min). Samples were analyzed on TopCounter™ (Packard). The IC₅₀ was calculated using (one site binding competition analysis) GraphPad Prism5 as a measure of receptor affinity.

Row | Binder | Ratio hCT/hAmylin funct. [1] | hCTR funct. EC50 (pM) [2] [pM] | Ratio hCT/hAmylin funct. (hCTR EC50 over hAmylin-R EC50) [3] | hAmylin-R funct. EC50 (CRE luciferase reporter, BHK cells) [3] [nM] | hCTR funct. EC50 (CRE luciferase reporter, BHK cells) [4] [nM] | IC50 [5] [nM]
1 | K([γGlu-C20 diacid])CNTATCATQRLADFLRHSSPNFGAIPSSTNVGPETY-NH2 (disulfide 2-7 (inferred)) | 3.9 | 1120 | – | – | – | –
2 | K([γGlu-γGlu-C20 diacid])CNTATCATQRLAEFLRHSSPNFGAIPSSTNVGPETP-NH2 (disulfide 2-7 (inferred)) | 0.8 | 102 | – | – | – | –
3 | K([γGlu-C20 diacid])CNTATCATQRLADFLRHSSPNFGAIPSSTNVGPRTY-NH2 (disulfide 2-7; N-terminus assumed; SMILES CC[C@H](C)[C@H](NC(=O)[C@H](C)NC(=O)CNC(=O)[C@H](Cc1ccccc1)NC(=O)[C@H](CC(N)=O)NC(=O)[C@@H]1CCCN1C(=O)[C@H](CO)NC(=O)[C@H](CO)NC(=O)[C@H](Cc1c[nH]cn1)NC(=O)[C@H](CCCNC(=N)N)NC(=O)[C@H](CC(C)C)NC(=O)[C@H](Cc1ccccc1)NC(=O)[C@H](CC(=O)O)NC(=O)[C@H](C)NC(=O)[C@H](CC(C)C)NC(=O)[C@H](CCCNC(=N)N)NC(=O)[C@H](CCC(N)=O)NC(=O)[C@@H](NC(=O)[C@H](C)NC(=O)[C@@H]1CSSC[C@H](NC(=O)[C@@H](N)CCCCNC(=O)CC[C@H](NC(=O)CCCCCCCCCCCCCCCCCCC(=O)O)C(=O)O)C(=O)N[C@@H](CC(N)=O)C(=O)N[C@@H]([C@@H](C)O)C(=O)N[C@@H](C)C(=O)N[C@@H]([C@@H](C)O)C(=O)N1)[C@@H](C)O)C(=O)N1CCC[C@H]1C(=O)N[C@@H](CO)C(=O)N[C@@H](CO)C(=O)N[C@H](C(=O)N[C@@H](CC(N)=O)C(=O)N[C@H](C(=O)NCC(=O)N1CCC[C@H]1C(=O)N[C@@H](CCCNC(=N)N)C(=O)N[C@H](C(=O)N[C@@H](Cc1ccc(O)cc1)C(N)=O)[C@@H](C)O)C(C)C)[C@@H](C)O) | – | – | 24.9 | 0.146 | 3.64 | 0.281
4 | K([γGlu-γGlu-C20 diacid])CNTATCATQRLA[dD]FLRHSSPNFGAIPSSTNVGSRTY-NH2 (disulfide 2-7; N-terminus assumed; SMILES CC[C@H](C)[C@H](NC(=O)[C@H](C)NC(=O)CNC(=O)[C@H](Cc1ccccc1)NC(=O)[C@H](CC(N)=O)NC(=O)[C@@H]1CCCN1C(=O)[C@H](CO)NC(=O)[C@H](CO)NC(=O)[C@H](Cc1c[nH]cn1)NC(=O)[C@H](CCCNC(=N)N)NC(=O)[C@H](CC(C)C)NC(=O)[C@H](Cc1ccccc1)NC(=O)[C@@H](CC(=O)O)NC(=O)[C@H](C)NC(=O)[C@H](CC(C)C)NC(=O)[C@H](CCCNC(=N)N)NC(=O)[C@H](CCC(N)=O)NC(=O)[C@@H](NC(=O)[C@H](C)NC(=O)[C@@H]1CSSC[C@H](NC(=O)[C@@H](N)CCCCNC(=O)CC[C@H](NC(=O)CC[C@H](NC(=O)CCCCCCCCCCCCCCCCCCC(=O)O)C(=O)O)C(=O)O)C(=O)N[C@@H](CC(N)=O)C(=O)N[C@@H]([C@@H](C)O)C(=O)N[C@@H](C)C(=O)N[C@@H]([C@@H](C)O)C(=O)N1)[C@@H](C)O)C(=O)N1CCC[C@H]1C(=O)N[C@@H](CO)C(=O)N[C@@H](CO)C(=O)N[C@H](C(=O)N[C@@H](CC(N)=O)C(=O)N[C@H](C(=O)NCC(=O)N[C@@H](CO)C(=O)N[C@@H](CCCNC(=N)N)C(=O)N[C@H](C(=O)N[C@@H](Cc1ccc(O)cc1)C(N)=O)[C@@H](C)O)C(C)C)[C@@H](C)O) | – | – | – | 0.383 | 100 | 0.365
